What was measured:
Assay in all cases: SPR, AAV amine-coupled to CM5 chip;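 also: nanobodies flowed as analyte at seven concentrations spanning 1–100 nM over immobilized AAV (500–800 RU), kinetic constants derived by fitting the binding curves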
AAV5 = biological target: T1, AAV5 (adeno-associated virus 5)
T1 construct: also called adeno-associated virus serotype 5
Method: (§1) AAV was amine-coupled to a CM5 sensor chip at a density of 500-800 response units (RU). Nanobodies were injected at seven concentrations (1-100 nM) with a flow rate of 45 μL/min, and chip regeneration was performed using glycine-HCl (pH 1.5). Binding curves at different nanobody concentrations were used to calculate kinetic parameters (Kₐ, Kd, KD) (Table 2 and FIG. 2).

AAV9 = biological target: T2, AAV9 (adeno-associated virus 9)
T2 construct: also called adeno-associated virus serotype 9
Method: as §1

AAV8 = biological target: T3, AAV8 (adeno-associated virus 8)
T3 construct: also called adeno-associated virus serotype 8
Method: as §1

AAV2 = biological target: T4, AAV2 (adeno-associated virus 2, UniProt P03135 1-735)
T4 construct: also called adeno-associated virus serotype 2
Method: as §1

B1: A4-051 (VHH)
VHH: VQLQESGGGLVQPGGSLRLSCAASGSSFVINTMGWYRRAPGKQRELVAAVTRGGSTNYADSVKGRFTISRDNAKNTVYLQMNSLRPEDTAVYYCHVDEVRQSSWTTSNLWGQGTQVTVSS
Kd (AAV5): 748 nM
koff (AAV5): 0.00507 s⁻¹
kon (AAV5): 6780 M⁻¹ s⁻¹
Kd (AAV9): 712 nM
koff (AAV9): 0.00477 s⁻¹
kon (AAV9): 6700 M⁻¹ s⁻¹
Kd (AAV8): 791 nM
koff (AAV8): 0.00466 s⁻¹
kon (AAV8): 5890 M⁻¹ s⁻¹
Kd (AAV2): 907 nM
koff (AAV2): 0.00325 s⁻¹
kon (AAV2): 3580 M⁻¹ s⁻¹

B2: A4-091 (VHH)
VHH: VQLQESGGGLVQPGGSLRLSCAASGSRFSINTMGWYRQRAGKQRELVATVTRDGSTTYANSVKGRFTISRDNAKNTVYLQMNSLRPEDTAVYYCHVDELRQSTWTTSNLWGQGTQVTVSS
Kd (AAV5): 4.49 nM
koff (AAV5): 3e-05 s⁻¹
kon (AAV5): 6690 M⁻¹ s⁻¹
Kd (AAV9): 34.5 nM
koff (AAV9): 0.0002 s⁻¹
kon (AAV9): 5790 M⁻¹ s⁻¹
Kd (AAV8): 99.4 nM
koff (AAV8): 0.00091 s⁻¹
kon (AAV8): 9160 M⁻¹ s⁻¹

B3: A4-094 (VHH)
VHH: VQLQESGGGLVQPGGSLRLSCVASGSIFVINTMGWYRQAPGKQRELVATVTRDGGTNYADSVKGRFTISRDNAKNTVYLQMNSLRPEDTAVYYCHIDEIRESSWTTSNLWGQGTQVTVSS
Kd (AAV5): 171 nM
koff (AAV5): 0.00166 s⁻¹
kon (AAV5): 9680 M⁻¹ s⁻¹
Kd (AAV9): 44.8 nM
koff (AAV9): 0.00043 s⁻¹
kon (AAV9): 9600 M⁻¹ s⁻¹
Kd (AAV8): 86.5 nM
koff (AAV8): 0.00058 s⁻¹
kon (AAV8): 6710 M⁻¹ s⁻¹

B4: A4-100 (VHH)
VHH: VQLQESGGGLVQPGGSLRLSCAASGSIFVINTMGWYRQAPGKQRELVASLTRGGSTNYADSVKGRFTISRDNDKNTIYLQMNSLRPEDTAVYYCHVDEVRESTWTTSNIWGQGTQVTVSS
Kd (AAV5): 6.75 nM
koff (AAV5): 0.00124 s⁻¹
kon (AAV5): 184000 M⁻¹ s⁻¹
Kd (AAV9): 7.64 nM
koff (AAV9): 0.00126 s⁻¹
kon (AAV9): 165000 M⁻¹ s⁻¹
Kd (AAV8): 36.2 nM
koff (AAV8): 0.00356 s⁻¹
kon (AAV8): 98300 M⁻¹ s⁻¹

B5: A4-097 (VHH)
VHH: VQLQESGGGLVQPGGSLRLSCIASGSIFSANTMGWYRQAPGKQRELVATITRGGNTNYGDSVKGRFTISRDNAKNTVYLQMNTLRPEDTAVYYCHVDEIRESSWTTSNLWGQGTQVTVSS
Kd (AAV5): 578 nM
koff (AAV5): 0.00544 s⁻¹
kon (AAV5): 9410 M⁻¹ s⁻¹
Kd (AAV9): 62.3 nM
koff (AAV9): 0.00816 s⁻¹
kon (AAV9): 131000 M⁻¹ s⁻¹
Kd (AAV8): 12.4 nM
koff (AAV8): 0.00192 s⁻¹
kon (AAV8): 155000 M⁻¹ s⁻¹

B6: A4-096 (VHH)
VHH: VQLQESGGGLVQPGGSLRLSCIASGSSFSANTMGWYRQAPGKQRELVATITRGGNTNYGDSVKGRFTISRDNAKNTVYLQMNSLRPEDTAVYYCHIDEIRESTWTTSNLWGQGTQVTVSS
Kd (AAV5): 48.9 nM
koff (AAV5): 0.00123 s⁻¹
kon (AAV5): 25100 M⁻¹ s⁻¹
Kd (AAV9): 5.14 nM
koff (AAV9): 0.00064 s⁻¹
kon (AAV9): 125000 M⁻¹ s⁻¹
Kd (AAV8): 15.4 nM
koff (AAV8): 0.00169 s⁻¹
kon (AAV8): 110000 M⁻¹ s⁻¹

B7: A4-098 (VHH)
VHH: VQLQESGGGLVQPGGSLRLSCIASGSIFSINTMGWYRQAPGKQRELVATITRGGNTNYGDSVKGRFTISRDNAKNTVYLQMNTLRPEDTAVYYCHVDEIRESSWTTSNLWGQGTQVTVSS
Kd (AAV5): 130 nM
koff (AAV5): 0.00117 s⁻¹
kon (AAV5): 9030 M⁻¹ s⁻¹
Kd (AAV9): 82.2 nM
koff (AAV9): 0.0006 s⁻¹
kon (AAV9): 7300 M⁻¹ s⁻¹
Kd (AAV8): 23.3 nM
koff (AAV8): 0.00018 s⁻¹
kon (AAV8): 7740 M⁻¹ s⁻¹

B8: A4-095 (VHH)
VHH: VQLQESGGGLVQPGGSLRLSCAASGSSFSANTMGWYRQAPGKQRELVATITRGGNTNYGDSVKGRFTISRDNAKDTVYLQMNSLRPEDTAVYYCHIDEIRESTWTTSNLWGQGTQVTVSS
Kd (AAV5): 14.5 nM
koff (AAV5): 0.00133 s⁻¹
kon (AAV5): 91800 M⁻¹ s⁻¹
Kd (AAV9): 6.34 nM
koff (AAV9): 0.00114 s⁻¹
kon (AAV9): 180000 M⁻¹ s⁻¹
Kd (AAV8): 2.25 nM
koff (AAV8): 0.00026 s⁻¹
kon (AAV8): 116000 M⁻¹ s⁻¹
